Where “and” joins values, the source holds several entries; their conditions need not be identical. Equal entries are not always repeated.
Key:
[1] = molecular target: Drp1 with deletion of the MoRF-1 sequence (human) (UniProt O00429); experiment: mass photometry; Drp1 in solution; molecular weight determined by mass photometry; conditions not given
[2] = molecular target: the molecule itself; experiment: as above

| stoichiometry N [1] | Molecule | stoichiometry N [2] |
| --- | --- | --- |
| 2 | Drp1 with deletion of the MoRF-1 sequence (from UniProt O00429-4 1-699) (enzyme) |  |
|  | dynamin-related protein 1 (Drp1) isoform 3, full-length human (enzyme, UniProt O00429-4 1-699, looked up, human dynamin-related protein 1 (Drp1), isoform 3, UniProt O00429-4, full length; CBP tag removed with PreScission protease; also called Drp1-3; WT; source: E. coli BL21 (DE3) Star, purified (calmodulin agarose, SEC)) MEALIPVINKLQDVFNTVGADIIQLPQIVVVGTQSSGKSSVLESLVGRDLLPRGTGIVTRRPLILQLVHVSQEDKRKTTGEENGVEAEEWGKFLHTKNKLYTDFDEIRQEIENETERISGNNKGVSPEPIHLKIFSPNVVNLTLVDLPGMTKVPVGDQPKDIELQIRELILRFISNPNSIILAVTAANTDMATSEALKISREVDPDGRRTLAVITKLDLMDAGTDAMDVLMGRVIPVKLGIIGVVNRSQLDINNKKSVTDSIRDEYAFLQKKYPSLANRNGTKYLARTLNRLLMHHIRDCLPELKTRINVLAAQYQSLLNSYGEPVDDKSATLLQLITKFATEYCNTIEGTAKYIETSELCGGARICYIFHETFGRTLESVDPLGGLNTIDILTAIRNATGPRPALFVPEVSFELLVKRQIKRLEEPSLRCVELVHEEMQRIIQHCSNYSTQELLRFPKLHDAIVEVVTCLLRKRLPVTNEMVHNLVAIELAYINTKHPDFADACGLMNNNIEEQRRNRLARELPSAVSRDKVASGGGGVGDGVQEPTTGNWRGMLKTSKAEELLAEEKSKPIPIMPASPQKGHAVNLLDVPVPVARKLSAREQRDCEVIERLIKSYFLIVRKNIQDSVPKAVMHFLVNHVKDTLQSELVGQLYKSSLLDDLLTESEDMAQRRKEAADMLKALQGASQIIAEIRETHLW | 2 and 4 and 6 |

From PMC12790805, “The Structure of the Drp1 Lattice on Membrane” (Journal of molecular biology, 2025)
